B1: fibromodulin (natural protein)
chain: QYEDDPHWWFHYLRSQQSTYYDPYDPYPYETYEPYPYGVDEGPAYTYGSPSPPDPRDCPQECDCPPNFPTAMYCDNRNLKYLPFVPSRMKYVYFQNNQITSIQEGVFDNATGLLWIALHGNQITSDKVGRKVFSKLRHLERLYLDHNNLTRMPGPLPRSLRELHLDHNQISRVPNNALEGLENLTALYLQHNEIQEVGSSMRGLRSLILLDLSYNHLRKVPDGLPSALEQLYMEHNNVYTVPDSYFRGAPKLLYVRLSHNSLTNNGLASNTFNSSSLLELDLSYNQLQKIPPVNTNLENLYLQGNRINEFSISSFCTVVDVVNFSKLQVLRLDGNEIKRSAMPADAPLCLRLASLIEI
modifications: biotinylated (EZ-Link Sulfo-NHS-LC-Biotinylation kit); glycosylated
B2: osteoadherin (natural protein)
chain: QYETYQWDEDYDQEPDDDYQTGFPFRQNVDYGVPFHQYTLGCVSECFCPTNFPSSMYCDNRKLKTIPNIPMHIQQLYLQFNEIEAVTANSFINATHLKEINLSHNKIKSQKIDYGVFAKLPNLLQLHLEHNNLEEFPFPLPKSLERLLLGYNEISKLQTNAMDGLVNLTMLDLCYNYLHDSLLKDKIFAKMEKLMQLNLCSNRLESMPPGLPSSLMYLSLENNSISSIPEKYFDKLPKLHTLRMSHNKLQDIPYNIFNLPNIVELSVGHNKLKQAFYIPRNLEHLYLQNNEIEKMNLTVMCPSIDPLHYHHLTYIRVDQNKLKEPISSYIFFCFPHIHTIYYGEQRSTNGQTIQLKTQVFRRFPDDDDESEDHDDPDNAHESPEQEGAEGHFDLHYYENQE
modifications: biotinylated (EZ-Link Sulfo-NHS-LC-Biotinylation kit); glycosylated
B3: biglycan (natural protein)
chain: DEEASGADTSGVLDPDSVTPTYSAMCPFGCHCHLRVVQCSDLGLKSVPKEISPDTTLLDLQNNDISELRKDDFKGLQHLYALVLVNNKISKIHEKAFSPLRKLQKLYISKNHLVEIPPNLPSSLVELRIHDNRIRKVPKGVFSGLRNMNCIEMGGNPLENSGFEPGAFDGLKLNYLRISEAKLTGIPKDLPETLNELHLDHNKIQAIELEDLLRYSKLYRLGLGHNQIRMIENGSLSFLPTLRELHLDNNKLARVPSGLPDLKLLQVVYLHSNNITKVGVNDFCPMGFGVKRAYYNGISLFNNPVPYWEVQPATFRCVTDRLAIQFGNYKK
modifications: biotinylated (EZ-Link Sulfo-NHS-LC-Biotinylation kit); glycosylated

Biological target: recombinant UspA2 (ubiquitous surface protein A2), cloned from M. catarrhalis strain RH4 (Moraxella catarrhalis strain RH4)
Assay: ELISA

“decorin (from UniProt P07585 31-359) (natural protein)” was tested. Which Kd did it give?
Its Kd is 293 nM.

With B1 as the molecule, how does the Kd read?
The Kd was 202 nM.

With B2 as the molecule, how does the Kd read?
Its Kd is 231 nM.

B3 was tested. Which Kd did it give?
The Kd was 89 nM.
